In patent publication US20240239872A1 (SHANDONG AGRICULTURAL UNIVERSITY, published 2024):

T1: CP of tomato brown rugose fruit virus (genus Tobamovirus) (Tomato brown rugose fruit virus, UniProt A0A0S2SZX3 2-159)
T1 construct: also called ToMMV (as printed for this virus)
T1 sequence: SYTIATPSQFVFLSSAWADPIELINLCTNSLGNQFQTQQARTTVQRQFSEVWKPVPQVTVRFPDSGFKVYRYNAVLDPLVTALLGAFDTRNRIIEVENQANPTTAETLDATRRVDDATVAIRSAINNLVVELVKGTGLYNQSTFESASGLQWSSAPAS

B1: monoclonal antibody M3 (antibody, V domains shown)
VH: EVILVESGGGLVKPGGSLRLSCAASGFTFSSHPLSWVRQSPDKRLEWVASISSGGRYTYYPDSVKGRLTISRDNAKNILYLHMNSLRSEDTAMYYCARRGSTATAWFAYWGQGTLVTVSA
VL: DIALTQSPASLAVSLGQRATISCKASQSVDYDGDSYMSWYQQKPGQPPKLLIYGASNLESGIPARFSGSGSGTDFTLNIHPVEEEDAATYYCQQSNEDLPTFGGGTKLEIK
notes: also called MAb M3
B2: monoclonal antibody M2 (antibody, V domains shown)
VH: EVQLVESGGGLVQPKGSLKLSCAASDFTFNTHSMNWVRQAPGKVLEWIARIRSQSNNYATYYADSVKDRFTISRDDSQNMFYLQMNNLKTEDTAMYYCAGDYYGPFAYWGQGTLVAVSA
VL: DVLMTQTPLSLPVSLGDQASISCRSGQSLVHSNGNTYLHWYLQKPGQSPKLLIYKVSNRFSGVPDRFSGSGSGTDFTLKISRVEAEDLGVYFCSQSTHVPWTFGGGTKLEIK
notes: also called MAb M2
B3: monoclonal antibody N1 (antibody, V domains shown)
VH: EVQLVESGGGLVQPGGSLKLSCAASGFTFSSYGMSWVRQSPDKRLEWVATINNNGGSTYYPDSVKGRFTISRDNAKNTLYLQMSSLKSEDTAVYYCARDAAFDCWGQGTTLTVSS
VL: DIVMSQSPSSLAVSAGEKVTMSCKSSQSLLNSRTRKNYLAWYQQKPGQSPKLLIYWASTRESGVPDRFTGSGSGTDFTLTISSVQAEDLAVYYCKQSYNLFTFGSGTKLEIK
notes: also called MAb N1
B4: monoclonal antibody M1 (antibody, V domains shown)
VH: QVQLQQSGPELVRPGASVKMSCKTSGYPFSTYWMHWVKQRPGQGLEWIGMIKPSNSETSLNQKFKDKATLNVDKSSNTAYMQLNSLTSEDSGVYYCARAGDSWGQGTTLTVSS
VL: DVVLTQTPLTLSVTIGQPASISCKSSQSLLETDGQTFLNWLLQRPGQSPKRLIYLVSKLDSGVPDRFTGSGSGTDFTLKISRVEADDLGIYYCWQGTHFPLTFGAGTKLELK
notes: also called MAb M1
B5: monoclonal antibody C1 (antibody, V domains shown)
VH: EVQLQQSGAELVRPGALVKLSCKASGFNIKDYYMHWVKQRPEEGLEWIGWIDPENGNTIYDPKFQGKASITADTSSNTVRLQLSSLTSEDTAVYYCARERGAYWGQGTLVTVSA
VL: QIVLTQSPAIMSASPGEKVTMTCSASSSVSYMYWFQQKPGSSPRLLIYDTSNLASGVPVRFSGSGSGTSYSLTISRMEAEDAATFYCQQWSSYPLTFGAGTKLELK
notes: also called MAb C1

Biological target: T1, CP of tomato brown rugose fruit virus …
Test: dot blot; also Western blot and ELISA

Does B1 bind?
Result: no binding

Does B2 bind?
Result: no binding

Does B3 bind?
Result: no binding

Does B4 bind?
Result: no binding

Does B5 bind?
Result: no binding
